Each block holds one molecule with its values, some of them ahead of it.
B6: CD55 SCR1–4 domains (35–285), His-tagged (domain or fragment)
chain: DCGLPPDVPNAQPALEGRTSFPEDTVITYKCEESFVKIPGEKDSVICLKGSQWSDIEEFCNRSCEVPTRLNSASLKQPYITQNYFPVGTVVEYECRPGYRREPSLSPKLTCLQNLKWSTAVEFCKKKSCPNPGEIRNGQIDVPGGILFGATISFSCNTGYKLFGSTSSFCLISGSSVQWSDPLPECREIYCPAPPQIDNGIIQGERDHYGYRQSVTYACNKGFTMIGEHSIYCTVNNDEGEWSGPPPECRG

How the values were obtained:
[1] = target: CD55 SCR1–4 domains (35–285), His-tagged (human) (UniProt P08174); test: SPR; Biacore T200; His-tagged CD55 immobilized on nickel coated NTA chip; CD97 (WT, mutants) or EMR2 without His-tag injected at 50 μl/min for 2 min; 20 mM Tris, pH 7.5, 200 mM NaCl, 2 mM CaCl2, 0.05% Tween 20
[2] = target: B6; test: SPR
[3] = target: T1, CD55 SCR1–4 domains (35–285), His-tagged (human, UniProt P08174 35-285); test: SPR; Biacore T200; His-tagged CD55 immobilized on nickel coated NTA chip; CD97 (WT, mutants) or EMR2 without His-tag injected at 50 μl/min for 2 min; 20 mM Tris, pH 7.5, 200 mM NaCl, 2 mM CaCl2, 0.05% Tween 20; settings: both partners purified
T1 construct: CD55 (complement decay-accelerating factor), human, UniProt P08174, SCR1–4 domains, residues 35–285; Vector pLEXm with N-terminal signal peptide; codon-optimized gene; In the crystal and SAXS rows it stood as the C-terminal part of the chimera m9; also called decay-accelerating factor; not shown: His6, C-terminal, kept
T1 sequence (looked up): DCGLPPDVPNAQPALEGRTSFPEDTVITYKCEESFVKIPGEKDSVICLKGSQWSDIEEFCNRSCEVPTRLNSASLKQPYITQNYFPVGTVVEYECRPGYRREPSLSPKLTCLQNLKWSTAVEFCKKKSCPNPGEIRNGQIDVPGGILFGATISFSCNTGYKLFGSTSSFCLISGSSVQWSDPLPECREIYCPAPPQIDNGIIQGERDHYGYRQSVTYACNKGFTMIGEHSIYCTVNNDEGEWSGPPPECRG

[4] = target: T2, CD97 EGF_(1,2,5) fragment D81A, without His-tag (human, UniProt P48960-2 21-165, D81A); test: SPR
T2 sequence: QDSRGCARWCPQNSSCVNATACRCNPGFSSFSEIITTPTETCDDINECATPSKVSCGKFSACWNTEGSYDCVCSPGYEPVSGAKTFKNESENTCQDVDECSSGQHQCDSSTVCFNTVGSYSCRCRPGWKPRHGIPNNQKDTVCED

[5] = target: T3, CD97 EGF_(1,2,5) fragment D63L, without His-tag (human, UniProt P48960-2 21-165, D63L); test: SPR
T3 sequence: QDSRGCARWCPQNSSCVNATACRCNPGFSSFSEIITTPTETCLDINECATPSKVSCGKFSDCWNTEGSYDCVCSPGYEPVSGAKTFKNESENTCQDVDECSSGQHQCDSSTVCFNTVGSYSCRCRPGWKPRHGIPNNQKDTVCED

[6] = target: T4, CD97 EGF_(1,2,5) fragment V137A, without His-tag (human, UniProt P48960-2 21-165, V137A); test: SPR
T4 sequence: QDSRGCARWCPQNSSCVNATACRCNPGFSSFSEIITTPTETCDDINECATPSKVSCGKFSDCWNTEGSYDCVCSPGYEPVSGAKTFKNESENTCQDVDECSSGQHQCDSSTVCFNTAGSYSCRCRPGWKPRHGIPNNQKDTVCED

[7] = target: T5, CD97 EGF_(1,2,5) fragment E86A, without His-tag (human, UniProt P48960-2 21-165, E86A); test: SPR
T5 sequence: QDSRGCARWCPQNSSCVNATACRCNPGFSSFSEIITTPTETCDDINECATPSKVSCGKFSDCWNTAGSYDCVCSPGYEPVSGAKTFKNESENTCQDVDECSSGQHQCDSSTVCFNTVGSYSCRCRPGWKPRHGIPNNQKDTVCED

B2: CD97 EGF_(1,2,5) fragment D63L, without His-tag (domain or fragment, human, UniProt P48960-2 21-165, looked up)
chain: QDSRGCARWCPQNSSCVNATACRCNPGFSSFSEIITTPTETCLDINECATPSKVSCGKFSDCWNTEGSYDCVCSPGYEPVSGAKTFKNESENTCQDVDECSSGQHQCDSSTVCFNTVGSYSCRCRPGWKPRHGIPNNQKDTVCED
notes: CD97, human, EGF_(1,2,5) isoform fragment, residues 21–165, with D63L; Made by overlapping PCR, cloned to the same vector as m3; not shown: His6, C-terminal, cleaved
Kd [3]: 85.2 µM

B4: CD97 EGF_(1,2,5) fragment D81A, without His-tag (domain or fragment, human, UniProt P48960-2 21-165, looked up)
chain: QDSRGCARWCPQNSSCVNATACRCNPGFSSFSEIITTPTETCDDINECATPSKVSCGKFSACWNTEGSYDCVCSPGYEPVSGAKTFKNESENTCQDVDECSSGQHQCDSSTVCFNTVGSYSCRCRPGWKPRHGIPNNQKDTVCED
notes: CD97, human, EGF_(1,2,5) isoform fragment, residues 21–165, with D81A; Made by overlapping PCR, cloned to the same vector as m3; not shown: His6, C-terminal, cleaved
Kd [3]: 66.4 µM

B5: CD97 EGF_(1,2,5) fragment E86A, without His-tag (domain or fragment, human, UniProt P48960-2 21-165, looked up)
chain: QDSRGCARWCPQNSSCVNATACRCNPGFSSFSEIITTPTETCDDINECATPSKVSCGKFSDCWNTAGSYDCVCSPGYEPVSGAKTFKNESENTCQDVDECSSGQHQCDSSTVCFNTVGSYSCRCRPGWKPRHGIPNNQKDTVCED
notes: CD97, human, EGF_(1,2,5) isoform fragment, residues 21–165, with E86A; Made by overlapping PCR, cloned to the same vector as m3; not shown: His6, C-terminal, cleaved
Kd [3]: 17.6 µM

Molecule: B6
koff [4]: 0.00122 s⁻¹ | koff [5]: 0.000968 s⁻¹ | koff [6]: 0.00163 s⁻¹ | koff [7]: 0.00141 s⁻¹

More lines, now with the values ahead:

Kd [1]: 3.2 µM | koff [1]: 0.00173 s⁻¹ | kon [1]: 546 M⁻¹ s⁻¹
Molecule: CD97 EGF_(1,2,5) fragment, WT, without His-tag (SPR construct with TEV site) (from UniProt P48960-2 21-165) (domain or fragment)

koff [2]: 0.00149 s⁻¹ | Kd [1]: 43 µM
B1: EMR2 EGF_(1,2,5) (24–168) fragment, His6 removed (domain or fragment)
chain: QDSRGCARWCPQDSSCVNATACRCNPGFSSFSEIITTPMETCDDINECATLSKVSCGKFSDCWNTEGSYDCVCSPGYEPVSGAKTFKNESENTCQDVDECSSGQHQCDSSTVCFNTVGSYSCRCRPGWKPRHGIPNNQKDTVCED

Kd [3]: 25.3 µM
B3: CD97 EGF_(1,2,5) fragment V137A, without His-tag (domain or fragment, human, UniProt P48960-2 21-165, looked up)
chain: QDSRGCARWCPQNSSCVNATACRCNPGFSSFSEIITTPTETCDDINECATPSKVSCGKFSDCWNTEGSYDCVCSPGYEPVSGAKTFKNESENTCQDVDECSSGQHQCDSSTVCFNTAGSYSCRCRPGWKPRHGIPNNQKDTVCED
notes: CD97, human, EGF_(1,2,5) isoform fragment, residues 21–165, with V137A (in EGF5); Made by overlapping PCR, cloned to the same vector as m3; also called V137A mutant; not shown: His6, C-terminal, cleaved

Reference: publication PMC8191316, “Structural basis for CD97 recognition of the decay-accelerating factor CD55 suggests mechanosensitive activation of adhesion GPCRs” (The Journal of Biological Chemistry, 2021)
